Experimental data published in the supplement of paper PMC10567573.

B1: C2CD2L (parent)
chain: EPAGSLRELGVWRSLLRLRATRAG

Variants of: B1
Experiment: protein stability index of a GFP-peptide fusion (GPS, HEK-293T) (PSI 1-6); higher = more stable
Settings: c terminus: a fixed tail appended
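Also: lentivirally expressed fusions sorted by FACS into six bins by GFP to DsRed ratio, PSI derived from sequencing read proportions per bin multiplied by bin number.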

With EPAGSLRELGVWRSLLRLYATRAG [R19Y] as the variant, how does the protein stability index read?
The protein stability index was 1.48.

With EPAGSLRELGVWRSLLRLSATRAG [R19S] as the variant, how does the protein stability index read?
The protein stability index was 3.27.

For EPAGSLRELGVWRSLLRLTATRAG [R19T], which protein stability index is on record?
Its protein stability index is 2.91.

For EPAGSLRELGVWRSLLRLLATRAG [R19L], which protein stability index is on record?
The protein stability index was 2.95.

Which protein stability index does the source give for EPAGSLRELGVWRSLLRLMATRAG [R19M] here?
Its protein stability index is 2.2.

For EPAGSLRELGVWRSLLRLQATRAG [R19Q], which protein stability index is on record?
Its protein stability index is 1.98.

With EPAGSLRELGVWRSLLRLKATRAG [R19K] as the variant, how does the protein stability index read?
Its protein stability index is 2.99.

For EPAGSLRELGVWRSLLRLIATRAG [R19I], which protein stability index is on record?
Its protein stability index is 2.24.

With EPAGSLRELGVWRSLLRLDATRAG [R19D] as the variant, how does the protein stability index read?
Its protein stability index is 2.73.

Which protein stability index does the source give for EPAGSLRELGVWRSLLRLVATRAG [R19V] here?
Its protein stability index is 2.31.

With EPAGSLRELGVWRSLLRLWATRAG [R19W] as the variant, how does the protein stability index read?
Its protein stability index is 2.22.

For EPAGSLRELGVWRSLLRLHATRAG [R19H], which protein stability index is on record?
The protein stability index was 1.85.

Which protein stability index does the source give for EPAGSLRELGVWYSLLRLRATRAG [R13Y] here?
Its protein stability index is 1.91.

With EPAGSLRELGVWQSLLRLRATRAG [R13Q] as the variant, how does the protein stability index read?
Its protein stability index is 2.56.

With EPAGSLRELGVWTSLLRLRATRAG [R13T] as the variant, how does the protein stability index read?
Its protein stability index is 2.05.

Which protein stability index does the source give for EPAGSLRELGVWHSLLRLRATRAG [R13H] here?
The protein stability index was 2.86.

Which protein stability index does the source give for EPAGSLRELGVWFSLLRLRATRAG [R13F] here?
The protein stability index was 1.81.

Which protein stability index does the source give for EPAGSLRELGVWDSLLRLRATRAG [R13D] here?
The protein stability index was 2.62.

For EPAGSLRELGVWPSLLRLRATRAG [R13P], which protein stability index is on record?
The protein stability index was 2.55.

Which protein stability index does the source give for EPAGSLRELGVWRSLTRLRATRAG [L16T] here?
The protein stability index was 2.74.

With EPAGSLRELGVWRSLYRLRATRAG [L16Y] as the variant, how does the protein stability index read?
The protein stability index was 2.3.

For EPAGSLRELGVWRSLRRLRATRAG [L16R], which protein stability index is on record?
Its protein stability index is 2.57.

With EPAGSLRELGVWRSLFRLRATRAG [L16F] as the variant, how does the protein stability index read?
Its protein stability index is 2.26.

For EPAGSLRELGVWRSLIRLRATRAG [L16I], which protein stability index is on record?
Its protein stability index is 2.36.

With EPAGSLRELGVWRSLKRLRATRAG [L16K] as the variant, how does the protein stability index read?
Its protein stability index is 3.56.

With EPAGSLRELGVWRSLPRLRATRAG [L16P] as the variant, how does the protein stability index read?
Its protein stability index is 4.09.

Which protein stability index does the source give for EPAGSLRELGVWRSLGRLRATRAG [L16G] here?
Its protein stability index is 3.32.

Which protein stability index does the source give for EPAGSLRELGVWRSLLRLRACRAG [T21C] here?
The protein stability index was 2.07.

With EPAGSLRELGVWRSLLRLRAFRAG [T21F] as the variant, how does the protein stability index read?
Its protein stability index is 1.96.

Which protein stability index does the source give for EPAGSLRELGVWRSLLRLRAIRAG [T21I] here?
Its protein stability index is 2.84.

With EPAGSLRELGVWRSLLRLRETRAG [A20E] as the variant, how does the protein stability index read?
Its protein stability index is 3.

With EPAGSLRELGVWRSLLRLRPTRAG [A20P] as the variant, how does the protein stability index read?
The protein stability index was 3.18.

With EPAGSLRELGVWRSLLRLRLTRAG [A20L] as the variant, how does the protein stability index read?
The protein stability index was 2.58.

With EPAGSLRELGVWRSLLRLRHTRAG [A20H] as the variant, how does the protein stability index read?
The protein stability index was 2.67.

With EPAGSLRELGVWRSLLRLRSTRAG [A20S] as the variant, how does the protein stability index read?
The protein stability index was 1.94.

With EPAGSLRELGVWRSLLRLRDTRAG [A20D] as the variant, how does the protein stability index read?
Its protein stability index is 3.34.

For EPAGSLRELGVWRSLLRLRQTRAG [A20Q], which protein stability index is on record?
The protein stability index was 2.04.

With EPAGSLRELGVWRSLLRLRMTRAG [A20M] as the variant, how does the protein stability index read?
The protein stability index was 2.48.

For EPAGSLRELGVWRSLLRLRTTRAG [A20T], which protein stability index is on record?
Its protein stability index is 1.85.

Which protein stability index does the source give for EPAGSLRELGVWRMLLRLRATRAG [S14M] here?
Its protein stability index is 2.41.

With EPAGSLRELGVWRQLLRLRATRAG [S14Q] as the variant, how does the protein stability index read?
The protein stability index was 2.12.

With EPAGSLRELGVWRRLLRLRATRAG [S14R] as the variant, how does the protein stability index read?
The protein stability index was 1.91.

Which protein stability index does the source give for EPAGSLRELGVWRVLLRLRATRAG [S14V] here?
Its protein stability index is 1.02.

Which protein stability index does the source give for EPAGSLRELGVWRGLLRLRATRAG [S14G] here?
The protein stability index was 1.42.

For EPAGSLRELGVWRLLLRLRATRAG [S14L], which protein stability index is on record?
The protein stability index was 1.33.

For EPAGSLRELGVWRWLLRLRATRAG [S14W], which protein stability index is on record?
The protein stability index was 2.5.

Which protein stability index does the source give for EPAGSLRELGVWRELLRLRATRAG [S14E] here?
Its protein stability index is 2.47.

With EPAGSLRELGVWRDLLRLRATRAG [S14D] as the variant, how does the protein stability index read?
The protein stability index was 1.56.

Which protein stability index does the source give for EPAGSLRELGVWRFLLRLRATRAG [S14F] here?
The protein stability index was 2.14.

For EPAGSLRELGVWRPLLRLRATRAG [S14P], which protein stability index is on record?
Its protein stability index is 2.98.

With EPAGSLRELGVWRKLLRLRATRAG [S14K] as the variant, how does the protein stability index read?
The protein stability index was 1.96.

With EPAGSLRELGVWRALLRLRATRAG [S14A] as the variant, how does the protein stability index read?
The protein stability index was 1.66.

With EPAGSLRELGVWRSLLRPRATRAG [L18P] as the variant, how does the protein stability index read?
The protein stability index was 3.97.

For EPAGSLRELGVWRSLLRCRATRAG [L18C], which protein stability index is on record?
The protein stability index was 2.67.

Which protein stability index does the source give for EPAGSLRELGVWRSLLRFRATRAG [L18F] here?
Its protein stability index is 2.07.

Which protein stability index does the source give for EPAGSLRELGVWRSLLRRRATRAG [L18R] here?
The protein stability index was 3.54.

Which protein stability index does the source give for EPAGSLRELGVWRSLLRSRATRAG [L18S] here?
The protein stability index was 3.53.

For EPAGSLRELGVWRSLLRIRATRAG [L18I], which protein stability index is on record?
Its protein stability index is 2.65.

With EPAGSLRELGVWRSLLRARATRAG [L18A] as the variant, how does the protein stability index read?
Its protein stability index is 3.73.

For EPAGSLRELGVWRSLLRDRATRAG [L18D], which protein stability index is on record?
Its protein stability index is 2.64.

For EPAGSLRELGVWRSLLRWRATRAG [L18W], which protein stability index is on record?
The protein stability index was 1.53.

Which protein stability index does the source give for EPAGSLRELGVMRSLLRLRATRAG [W12M] here?
The protein stability index was 2.42.

For EPAGSLRELGVERSLLRLRATRAG [W12E], which protein stability index is on record?
Its protein stability index is 3.84.

With EPAGSLRELGVQRSLLRLRATRAG [W12Q] as the variant, how does the protein stability index read?
The protein stability index was 3.87.

Which protein stability index does the source give for EPAGSLRELGVARSLLRLRATRAG [W12A] here?
Its protein stability index is 3.02.

With EPAGSLRELGVTRSLLRLRATRAG [W12T] as the variant, how does the protein stability index read?
Its protein stability index is 4.02.

Which protein stability index does the source give for EPAGSLRELGVDRSLLRLRATRAG [W12D] here?
The protein stability index was 1.9.

With EPAGSLRELGVPRSLLRLRATRAG [W12P] as the variant, how does the protein stability index read?
The protein stability index was 3.7.

With EPAGSLRELGVSRSLLRLRATRAG [W12S] as the variant, how does the protein stability index read?
The protein stability index was 4.37.

For EPAGSLRELGVCRSLLRLRATRAG [W12C], which protein stability index is on record?
The protein stability index was 3.48.

With EPAGSLRELGVWRSPLRLRATRAG [L15P] as the variant, how does the protein stability index read?
Its protein stability index is 3.76.

For EPAGSLRELGVWRSKLRLRATRAG [L15K], which protein stability index is on record?
The protein stability index was 2.96.

For EPAGSLRELGVWRSTLRLRATRAG [L15T], which protein stability index is on record?
The protein stability index was 2.5.

For EPAGSLRELGVWRSQLRLRATRAG [L15Q], which protein stability index is on record?
The protein stability index was 3.84.

Which protein stability index does the source give for EPAGSLRELGVWRSMLRLRATRAG [L15M] here?
Its protein stability index is 2.48.

With EPAGSLRELGVWRSGLRLRATRAG [L15G] as the variant, how does the protein stability index read?
The protein stability index was 3.51.

With EPAGSLRELGVWRSNLRLRATRAG [L15N] as the variant, how does the protein stability index read?
The protein stability index was 3.47.

With EPAGSLRELGVWRSDLRLRATRAG [L15D] as the variant, how does the protein stability index read?
Its protein stability index is 3.67.

With EPAGSLRELGVWRSELRLRATRAG [L15E] as the variant, how does the protein stability index read?
Its protein stability index is 4.27.

For EPAGSLRELGYWRSLLRLRATRAG [V11Y], which protein stability index is on record?
The protein stability index was 2.21.

For EPAGSLRELGTWRSLLRLRATRAG [V11T], which protein stability index is on record?
Its protein stability index is 2.95.

With EPAGSLRELGVWRSLLLLRATRAG [R17L] as the variant, how does the protein stability index read?
Its protein stability index is 1.53.

With EPAGSLRELGVWRSLLSLRATRAG [R17S] as the variant, how does the protein stability index read?
The protein stability index was 3.04.

Which protein stability index does the source give for EPAGSLRELGVWRSLLCLRATRAG [R17C] here?
The protein stability index was 2.15.

Which protein stability index does the source give for EPAGSLRELGVWRSLLWLRATRAG [R17W] here?
The protein stability index was 1.6.

For EPAGSLRELGVWRSLLGLRATRAG [R17G], which protein stability index is on record?
The protein stability index was 3.26.

Which protein stability index does the source give for EPAGSLRELGVWRSLLALRATRAG [R17A] here?
The protein stability index was 2.91.

With EPAGSLRELGVWRSLLDLRATRAG [R17D] as the variant, how does the protein stability index read?
The protein stability index was 3.73.

With EPAGSLRELGVWRSLLMLRATRAG [R17M] as the variant, how does the protein stability index read?
The protein stability index was 1.2.

For EPAGSLRELGVWRSLLTLRATRAG [R17T], which protein stability index is on record?
The protein stability index was 2.3.

For EPAGSLRELGVWRSLLELRATRAG [R17E], which protein stability index is on record?
Its protein stability index is 3.13.

Which protein stability index does the source give for EPAGSLRELGVWRSLLHLRATRAG [R17H] here?
The protein stability index was 2.65.

For EPAGSLRELGVWRSLLILRATRAG [R17I], which protein stability index is on record?
Its protein stability index is 2.46.

Which protein stability index does the source give for EPAGSLRELGVWRSLLFLRATRAG [R17F] here?
Its protein stability index is 1.95.
